Substitutions are numbered along the chain they refer to.
B1: 3A (antibody, V domains shown)
VH: QVQLVQSGAEVKKPGASVKVSCKASGYTFTSYYMHWVRQAPGQGLEWMGIINPGGGSTSYAQKFQGRVTMTRDTSTSTVYMELSSLRSEDTAVYYCARDAGHDYGDMAYWGQGTLVTVSS
VL: DIQMTQSPSTLSASVGDRVTITCRASQSISSWLAWYQQKPGKAPKLLIYKASSLESGVPSRFSGSGSGTEFTLTISSLQPDDFATYYCQQYRSFPTFGGGTKVEIK
B2: 1G (antibody, V domains shown)
VH: QVQLVQSGAEVKKPGASVKVSCKASGYTFTSYGISWVRQAPGQGLEWMGWISAYNGNTNYAQKLQGRVTMTTDTSTSTAYMELRSLRSDDTAVYYCARLGATVAYFDLWGRGTLVTVSS
VL: EIVLTQSPATLSVSPGERATLSCRASQSVSSNLAWYQQKPGQAPRLLIYGASTRATGIPARFSGSGSGTEFTLTISSLQSEDFAVYYCQQDVYWPFTFGGGTKVEIK
B3: 2A (antibody, V domains shown)
VH: QVQLVQSGAEVKKPGASVKVSCKASGYTFTSYYIHWVRQAPGQGLEWMGIINPSGGSTSYAQKFQGRVTMTRDTSTSTVYMELSSLRSEDTAVYYCARATWEALHYWGQGTLVTVSS
VL: B2 VL with L4M, S30G, D91Y, V92Y, Y93A, F96R
B4: 3B (antibody, V domains shown)
VH: QVQLVQSGAEVKKPGASVKVSCKASGYTFTSYYMHWVRQAPGQGLEWMGIINPSGGSTSYAQKFQGRVTMTRDTSTSTVYMELSSLRSEDTAVYYCARPSGDYSGYDALDVWGQGTMVTVSS
VL: B2 VL with V13L, N32Y, G50D, T53N, E70D, Q79E, S80P, V92P, F96I

Columns and labels:
[1] = system: HIV latent primary CD4+ T cells; experiment: T cell activation by plate-coated anti-BTN3A antibody plus anti-CD3, IFNγ expression (V-PLEX); format: cell-based, human; conditions: production of IFNγ, with anti-CD3, Yes/No
Description: (§1) Latent HIV-1 infected primary CD4+ T cells were generated following a protocol licensed from the laboratory of Jonathan Karn (Case Western Reserve University, Cleveland, Ohio). Briefly, naive CD4^+ T cells isolated from 2 healthy human donors were propagated for 6 days in growth medium supplemented with Dynabeads Human T-Activator CD3/CD28 (25 μl/10^6 cells) and Th17 polarizing cytokines: TGF-β1 (5 ng/ml), IL-4 (10 ng/ml), IFNγ (10 ng/ml), IL-1β (10 ng/ml), IL-6 (30 ng/ml), IL-23 (50 ng/ml), IL-8 (15 ng/ml), IL-10 (10 ng/ml). […]. Reactivation of HIV-1 proviruses from latently infected cells was performed by treatment with Dynabeads Human T-Activator CD3/CD28 (25 μl/10^6 cells) or PMA/Ionomycin.
We next addressed if treatment with anti-BTN3A antibodies reverses BTN3A-mediated blockade in T cell activation. To assess this, sterile 96-well flat bottom tissue culture plates (Corning) were coated with various concentrations of anti-CD3 and anti-BTN3 20.1 antibodies (10 μg/ml, 3 μg/ml, 1 μg/ml, and 0.3 μg/ml) in PBS for 16 h in a 4° C. refrigerator. As controls, plates were coated with various concentrations of anti-CD3 antibody and isotype control antibody (10 μg/ml, 3 μg/ml, 1 μg/ml, and 0.3 μg/ml), anti-CD3 antibody alone, or isotype control antibody alone. The next day, antibodies were aspirated using a multichannel pipette and HIV latent primary CD4+ T cells from two donors were added to the antibody coated plates in duplicates at 125,000 cells/well in 200 ul of primary cell media (RPMI with 10% FBS, 50 μg/ml Primocin™). At 72 h following treatment T cell activation was measured based on IFNγ expression using a V-PLEX proinflammatory panel 1 human assay (Meso Scale Discovery, Rockville, Md.) (FIG. 4).
(§2) Using the protocols described in detail in Example 2B and Example 3A, anti-BTN3A antibodies were screened for a functional role in T cell activation and reactivation of latent HIV. Antibody screens were conducted using HIV latent CD4+ T cells (prepared as described in Example 1A). T cell activation was quantified by production of IFNγ, and reactivation of latent HIV was quantified by luciferase assay. […] Detailed information on binding profile with binding affinity (KD) (Table 4) and antibody isotype and sequence (Table 5) are provided for two representative antibodies from each of the three functional categories observed.

[2] = system: latent HIV in HIV latent primary CD4+ T cells; experiment: Latent virus reactivation by plate-coated anti-BTN3A antibody plus anti-CD3, Nano-Glo Luciferase Assay; format: cell-based, HIV-1; conditions: with anti-CD3, Yes/No
Description: as §1
To assess if BTN3A modulation has impact on HIV latency reversal, sterile 96-well flat bottom tissue culture plates (Corning) were coated with various concentrations of anti-CD3 and anti-BTN3 20.1 antibodies (10 μg/ml, 3 μg/ml, 1 μg/ml, and 0.3 μg/ml) in PBS for 16h in a 4° C. refrigerator. As controls, plates were coated with various concentrations of anti-CD3 antibody and isotype control antibody (10 μg/ml, 3 μg/ml, 1 μg/ml, and 0.3 μg/ml), anti-CD3 antibody alone, or isotype control antibody alone. The next day, antibodies were aspirated using a multichannel pipette and HIV latent primary CD4+ T cells from two donors were added to the antibody coated plates in duplicates at 125,000 cells/well in 200 ul of primary cell media (RPMI with 10% FBS, 50 μg/ml Primocin™). At 24 h post treatment latent virus reactivation was measured using a Nano-Glo® Luciferase Assay (Promega) (FIG. 5).
as §2

BTN3A2 = biological target: T1, BTN3A2 (Homo sapiens, UniProt P78410); experiment: BTN isoform binding of yeast display antibodies (Octet isoform binding profile, binding affinity); conditions: Table 4; Yes/No; hIgG1-297A isotype
T1 construct: Fc (Fc-chimera); purchased R&D systems; host or cells: HEK293
T1 sequence (P78410 with tags, fused parts or gaps limits assumed): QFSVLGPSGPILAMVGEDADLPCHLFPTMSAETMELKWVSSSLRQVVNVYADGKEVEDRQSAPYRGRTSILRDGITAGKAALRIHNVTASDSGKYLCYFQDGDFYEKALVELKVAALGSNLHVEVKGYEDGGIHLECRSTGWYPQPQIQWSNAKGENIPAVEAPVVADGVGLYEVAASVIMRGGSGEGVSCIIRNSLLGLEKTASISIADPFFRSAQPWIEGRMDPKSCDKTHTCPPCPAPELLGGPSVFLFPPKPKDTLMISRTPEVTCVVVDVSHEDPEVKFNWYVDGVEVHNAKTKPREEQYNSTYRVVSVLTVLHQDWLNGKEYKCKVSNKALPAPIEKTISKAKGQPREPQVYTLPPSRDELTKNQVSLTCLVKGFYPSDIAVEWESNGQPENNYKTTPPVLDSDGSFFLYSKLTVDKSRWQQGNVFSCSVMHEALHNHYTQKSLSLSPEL
Description: (§3) De novo antibody discovery for butyrophilin isoforms was executed on pre-immune yeast display libraries. The soluble proteins used in the yeast display selections were biotinylated recombinant proteins of HEK293-expressed Fc-chimeras BTN2A2, BTN3A1, BTN3A2, and BTN3A3 from R&D systems. All proteins were analyzed before use by Biacore binding against control antibody anti-BTN Monoclonal Antibody (eBioBT3.1 (20.1, BT3.1), SEC, SDS-PAGE, and endotoxin.
(§4) Each biotinylated BTN isoform was subjected to pre-immune yeast display libraries for selections. The selections started with MACS (Magnetic Bead-based Cell Separation) cell separations for the first two rounds to enrich clones that bind to the targeted BTN isoforms, and applied fluorescence activated cell sorting (FACS) at later rounds to isolate clones that were with high affinity and isoform specificity. Due to the high sequence homology among all BTN isoforms, isoform-specific selection pressures were achieved by introducing ten-fold molar ratio of the non-biotinylated BTN isoforms to the biotinylated and selection-targeted BTN isoforms in the later rounds of the selections.
(§5) The isolated clones were then sequenced to identify the unique antibodies and screened for isoform binding profiles by Octet. To ensure the isolated antibodies have broad-epitopic coverage, all the antibodies were subjected to binning against the benchmark antibodies: BTN20.1 (Biolegend, agonist) and BTN103.2 (Creative Biolabs, antagonist). Purified antibodies were submitted for functional assay screening, as described below.
(§6) Given the sequence homology between BTN3A isoforms (>90%), this outcome is expected. Within all 105 antibodies from the BTN3A1 campaign and 125 antibodies from the BTN3A2 campaign, each antibody was characterized into one of the bins: Biolegend-bin, Creative-Biolabs-bin, Empty Set, or Overlapping.
as §2

BTN3A3 = biological target: T2, BTN3A3 (Homo sapiens, UniProt O00478); experiment: as above; conditions: Table 4; Yes/No; hIgG1-297A isotype
T2 construct: Fc (Fc-chimera); purchased R&D systems; host or cells: HEK293
T2 sequence (O00478 with tags, fused parts or gaps limits assumed): as the sequence (P78410 with tags, fused parts or gaps limits assumed) above, with K37R, N120D, V123I, Q149K, N152D, A153T, E174A, G184S, E187G counted along it
Description: as §3, §4, §5, §6, §2

BTN3A1 = biological target: T3, BTN3A1 (Homo sapiens, UniProt O00481); experiment: as above; conditions: Table 4; Yes/No; hIgG1-297A isotype
T3 construct: Fc (Fc-chimera); purchased R&D systems; host or cells: HEK293
T3 sequence (O00481 with tags, fused parts or gaps limits assumed): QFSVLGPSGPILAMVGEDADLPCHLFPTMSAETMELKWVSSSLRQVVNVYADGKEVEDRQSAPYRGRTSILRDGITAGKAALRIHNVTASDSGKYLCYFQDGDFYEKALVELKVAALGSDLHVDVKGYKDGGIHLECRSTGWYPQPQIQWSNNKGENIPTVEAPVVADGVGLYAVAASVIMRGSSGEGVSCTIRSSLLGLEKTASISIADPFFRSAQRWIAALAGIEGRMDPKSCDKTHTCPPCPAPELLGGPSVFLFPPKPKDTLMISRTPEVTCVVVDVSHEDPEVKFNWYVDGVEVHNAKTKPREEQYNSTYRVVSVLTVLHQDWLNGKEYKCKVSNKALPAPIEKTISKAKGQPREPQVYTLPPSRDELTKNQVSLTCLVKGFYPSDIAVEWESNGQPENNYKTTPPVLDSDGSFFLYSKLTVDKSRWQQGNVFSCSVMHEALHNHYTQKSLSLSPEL
Description: as §3, §4, §5, §6, §2

Molecule | Antibody function T cell activation [1] | Antibody function HIV reactivation [2] | BTN3A2 Binding (BTN3A2) | BTN3A3 Binding (BTN3A3) | BTN3A1 Binding (BTN3A1)
B1 | Yes | Yes | No | Yes | Yes
B2 | Yes | No | Yes | Yes | Yes
B3 | No | Yes | No | Yes | Yes
B4 | Yes | Yes | Yes | Yes | Yes
